Results taken from patent US7268110B2, “Agents for preventing and treating thrombocytopenia” (Chugai Seiyaku Kabushiki Kaisha, priority 1996, dated 2007).

B1: human PTH(1-84) (protein, UniProt P01270 32-115, looked up)
Parathyroid hormone: SVSEIQLMHNLGKHLNSMERVEWLRKKLQDVHNFVALGAPLAPRDAGSQRPRKKEDNVLVESHEKSLGEADKADVNVLTKAKSQ
modifications: Parathyroid hormone

What was measured:
[1] = tested on: platelet; test: Effectiveness of PTH derivative, daily administration to mouse; type: in vivo; conditions: C57B1/6N mice, 200 μg/kg subcutaneously once a day for six days, blood 24 h after final administration
Experimental: Effectiveness of PTH Derivative
Ten-week old male C57B1/6N mice as purchased from Japan Charles River Co., Ltd. were used in the experiment.
Drug solutions to be administered were prepared basically from human PTH(1-84) and human PTH(1-34) by the same procedure as in Example 1 to give a drug concentration of 20 μg/mL.
Eighteen mice were divided into three groups, which were administered subcutaneously with the two drug solutions and a control (citrate buffer) for six days on a once-a-day basis in a volume of 10 mL/kg. […] The administration was initiated at 10 a.m.
After 24 h of the final administration, a blood sample was withdrawn from each mouse through the orbital vein. Peripheral corpuscle counts were obtained with an automatic corpuscle counter F-800 (TOA MEDICAL ELECTRONICS CO., LTD).

[2] = tested on: platelet count; test: Test for daily administration to mouse (platelet increasing action); type: in vivo; conditions: C57B1/6N mice; for platelet count: day 5
Experimental: Test for Daily Administration to Mouse
Nine-week old male C57B1/6N mice as purchased from Japan Charles River Co., Ltd. were used in the experiment.
Drug solutions to be administered were prepared basically by the same procedure as in Example 1 to give drug concentrations of 5, 20 and 80 μg/mL.
The mice under test were divided into four groups, which were administered subcutaneously with the three drug solutions and a control (citrate buffer) once a day in a volume of 10 mL/kg. […] The administration was initiated at 10 a.m.
On days 5, 7 and 9 after the start of administration, five or six mice were picked up at random from each group of animals and blood samples were withdrawn through the orbital vein. The sampling of blood was timed to occur 24 h of the final administration. Separate blood samples were taken from untreated mice (five in number) to obtain the value for normal mouse. Peripheral corpuscle counts were obtained with an automatic corpuscle counter F-800 (TOA MEDICAL ELECTRONICS CO., LTD.).

[3] = tested on: platelet counts; test: Test for single-dose administration to mouse (platelet increasing action); type: in vivo; conditions: C57B1/6N mice, 10 μg/kg single dose through the tail vein
Experimental: Test for Single-Dose Administration to Mouse
Nine-week old male C57B1/6N mice as purchased from Japan Charles River Co. Ltd. were used in the experiment.
Human PTH(1-84) was dissolved in a citrate buffer (pH 5; containing 0.05% of Tween 80) at final concentrations of 1, 0.2 and 0.04 ˜g/mL so as to prepare the drug solutions to be administered.
Each of the thus prepared drug solutions and a control (citrate buffer) was administered to 15 mice through the tail vein in a volume of 10 mL/kg. […] The administration was initiated at 10 a.m.
After 3, 6 and 9 hours of the administration, five mice were picked up at random from each group of animals and blood samples were withdrawn through the orbital vein. At 10 a.m. on the same day, separate blood samples were taken from untreated mice (four in number) to obtain the preadministration value. Peripheral corpuscle counts were obtained with an automatic corpuscle counter F-800 (TOA MEDICAL ELECTRONICS CO., LTD.).

[4] = tested on: platelet counts; test: Test for daily administration to rabbit (platelet increasing action); type: in vivo; conditions: rabbits, 200 μg/kg subcutaneously daily
Experimental: Test for Daily Administration to Rabbit
Six 12-15 week old male Japanese albino rabbits JW/CSK were used in the experiment. The animals were individually kept in aluminum rabbit bracket cages Rb-1 (350^w×500^d×350^h mm) in a vavarium in a specific pathogen-free environment under the following conditions: temperature, 24±2° C.; humidity, 50±10%; illumination, light turned on at 5:00 and turned off at 19:00; ventilation, 15 changes/hr. Each animal was supplied with 120 g of a radiation-sterilized feed for rabbits RM (purchased from Funahashi Farm) per day. The animals were also allowed to drink to tap water ad libitum from an automatic water feeder.
Human PTH(1-84) was administered in a volume of 2 mL/vial at a concentration of 200 μg/mL. A solvent was also supplied in a volume of 2 mL/vial. Both the drug and the control were stored at −135° C. until use.
PTH (200 μg/kg) was administered to the rabbits subcutaneously at the back of their neck for 13 consecutive days. The solvent was similarly administered in the same volume as the dose of a rh-PTH solution calculated from their body weight.
Blood samples (0.5 mL) were withdrawn from the rabbits through the lateral auricular vein before the administration and on days 2, 6, 9 and 13 during the administration period. […]

[5] = tested on: BFU-E (precursor cells of erythrocytes); conditions: report by Meytes et al, J. Clin. Invest. 1981; cited from earlier work
[6] = tested on: CFU-GM (precursor cells of granulocytes and macrophages); conditions: report by Meytes et al, J. Clin. Invest. 1981; cited from earlier work

Molecule | platelet increasing action [1] | platelet count ([2]; 200 μg/kg subcutaneously once a day) | platelet count ([2]; 800 μg/kg subcutaneously once a day) | platelet count vs the control ([2]; all treated groups (50, 200 and 800 μg/kg subcutaneously once a day), day 7) | platelet counts over the control ([3]; 6 h after the administration) | platelet counts over the control ([3]; 9 h after the administration) | platelet count relative to the initial level ([4]; day 13) | platelet count relative to the initial value ([4]; increase from day 2 until day 6) | in vitro colony formation by BFU-E [5] | in vitro colony formation by CFU-GM [6]
human PTH(1-34) (SVSEIQLMHNLGKHLNSMERVEWLRKKLQDVHNF; Parathyroid hormone; UniProt P01270 32-65, looked up, fragment) [PTH(134), partial peptide of PTH composed of 34 amino acids as counted from the N terminus; purchased from Peptide Institute, Inc, reference compound] | comparable platelet increasing action to PTH(1-84) |  |  |  |  |  |  |  |  | 
B1 | platelet increasing action | tendency to increase | tendency to increase | significantly higher | significant increase | significant increase | substantially returned to the initial level | two to four | interfered | interfered
